Reference: patent publication US20120100139A1 (APTEVO RESEARCH AND DEVELOPMENT, published 2012)

B1: GL1 mAb (parent rat anti-murine CD86 monoclonal antibody) (antibody, V domains shown)
VH: EVQLVESAGGLVQPGRSLKLSCAASGFTFSDYYMAWVRQAPTKGLEWVATISHDGSSTYYRDSVKGRFTISRDNAKTILYLQMDSLRSEDTATYFCARQNIMDYWGQGVMVTVSS
VL: DIVMTQTPSSQAVSAGEKVTMSCKSSQSLLYSRDQSNYLAWYQQKPGQSPKLLIYLASTRESGVPDRFIGSGSGTDFTLTISSVQAEDLADYYCQQHYNYPLTFGSGTKLEIK
notes: also called GL1 antibody
B2: GL1 SMIP (Fc fusion)
chain: EVQLVESAGGLVQPGRSLKLSCAASGFTFSDYYMAWVRQAPTKGLEWVATISHDGSSTYYRDSVKGRFTISRDNAKTILYLQMDSLRSEDTATYFCARQNIMDYWGQGVMVTVSSGGGGSGGGGSGGGGSGGGGSDIVMTQTPSSQAVSAGEKVTMSCKSSQSLLYSRDQSNYLAWYQQKPGQSPKLLIYLASTRESGVPDRFIGSGSGTDFTLTISSVQAEDLADYYCQQHYNYPLTFGSGTKLEIKLEPKSSDKTHTCPPCPAPEAAGAPSVFLFPPKPKDTLMISRTPEVTCVVVDVSHEDPEVKFNWYVDGVEVHNAKTKPREEQYNSTYRVVSVLTVLHQDWLNGKAYACAVSNKALPAPIEKTISKAKGQPREPQVYTLPPSRDELTKNQVSLTCLVKGFYPSDIAVEWESNGQPENNYKTTPPVLDSDGSFFLYSKLTVDKSRWQQGNVFSCSVMHEALHNHYTQKSLSLSPG
notes: SMIP containing a single-chain GL1 antibody fragment
B3: GL1 PIMS (Fc fusion)
chain: EPKSSDKTHTCPPCPAPEAAGAPSVFLFPPKPKDTLMISRTPEVTCVVVDVSHEDPEVKFNWYVDGVEVHNAKTKPREEQYNSTYRVVSVLTVLHQDWLNGKAYACAVSNKALPAPIEKTISKAKGQPREPQVYTLPPSRDELTKNQVSLTCLVKGFYPSDIAVEWESNGQPENNYKTTPPVLDSDGSFFLYSKLTVDKSRWQQGNVFSCSVMHEALHNHYTQKSLSLSPGNSLFNQEVQIPLTESYSPNSEVQLVESAGGLVQPGRSLKLSCAASGFTFSDYYMAWVRQAPTKGLEWVATISHDGSSTYYRDSVKGRFTISRDNAKTILYLQMDSLRSEDTATYFCARQNIMDYWGQGVMVTVSSGGGGSGGGGSGGGGSGGGGSDIVMTQTPSSQAVSAGEKVTMSCKSSQSLLYSRDQSNYLAWYQQKPGQSPKLLIYLASTRESGVPDRFIGSGSGTDFTLTISSVQAEDLADYYCQQHYNYPLTFGSGTKLEIK
B4: GL1::IL10 xceptor (Fc fusion)
chain: EVQLVESAGGLVQPGRSLKLSCAASGFTFSDYYMAWVRQAPTKGLEWVATISHDGSSTYYRDSVKGRFTISRDNAKTILYLQMDSLRSEDTATYFCARQNIMDYWGQGVMVTVSSGGGGSGGGGSGGGGSGGGGSDIVMTQTPSSQAVSAGEKVTMSCKSSQSLLYSRDQSNYLAWYQQKPGQSPKLLIYLASTRESGVPDRFIGSGSGTDFTLTISSVQAEDLADYYCQQHYNYPLTFGSGTKLEIKLEPKSSDKTHTCPPCPAPEAAGAPSVFLFPPKPKDTLMISRTPEVTCVVVDVSHEDPEVKFNWYVDGVEVHNAKTKPREEQYNSTYRVVSVLTVLHQDWLNGKAYACAVSNKALPAPIEKTISKAKGQPREPQVYTLPPSRDELTKNQVSLTCLVKGFYPSDIAVEWESNGQPENNYKTTPPVLDSDGSFFLYSKLTVDKSRWQQGNVFSCSVMHEALHNHYTQKSLSLSPGNSLFNQEVQIPLTESYSPNSSPGQGTQSENSCTHFPGNLPNMLRDLRDAFSRVKTFFQMKDQLDNLLLKESLLEDFKGYLGCQALSEMIQFYLEEVMPQAENQDPDIKAHVNSLGENLKTLRLRLRRCHRFLPCENKSKAVEQVKNAFNKLQEKGIYKAMSEFDIFINYIEAYMTMKIRN
B5: IL10::GL1 xceptor (Fc fusion)
chain: SPGQGTQSENSCTHFPGNLPNMLRDLRDAFSRVKTFFQMKDQLDNLLLKESLLEDFKGYLGCQALSEMIQFYLEEVMPQAENQDPDIKAHVNSLGENLKTLRLRLRRCHRFLPCENKSKAVEQVKNAFNKLQEKGIYKAMSEFDIFINYIEAYITMKIRNLEPKSSDKTHTCPPCPAPEAAGAPSVFLFPPKPKDTLMISRTPEVTCVVVDVSHEDPEVKFNWYVDGVEVHNAKTKPREEQYNSTYRVVSVLTVLHQDWLNGKAYACAVSNKALPAPIEKTISKAKGQPREPQVYTLPPSRDELTKNQVSLTCLVKGFYPSDIAVEWESNGQPENNYKTTPPVLDSDGSFFLYSKLTVDKSRWQQGNVFSCSVMHEALHNHYTQKSLSLSPGNSLFNQEVQIPLTESYSPNSEVQLVESAGGLVQPGRSLKLSCAASGFTFSDYYMAWVRQAPTKGLEWVATISHDGSSTYYRDSVKGRFTISRDNAKTILYLQMDSLRSEDTATYFCARQNIMDYWGQGVMVTVSSGGGGSGGGGSGGGGSGGGGSDIVMTQTPSSQAVSAGEKVTMSCKSSQSLLYSRDQSNYLAWYQQKPGQSPKLLIYLASTRESGVPDRFIGSGSGTDFTLTISSVQAEDLADYYCQQHYNYPLTFGSGTKLEIK
B6: FUN1-12 humanized FUN1 SMIP (Fc fusion)
chain: EVQLVQSGAEVKKPGATVKISCKVSGYTFTDYNMNWVQQAPGKGLEWMGNIDPYYGGTSYNQKFKGRVTITADTSTDTAYMELSSLRSEDTAVYYCATWDYRYDDGRAYYVMDFWGQGTTVTVSSGGGGSGGGGSGGGGSGGGGSDIQMTQSPSSLSASVGDRVTITCKSSQSVLYSSNQKNYLAWYQQKPGKVPKLLIYWASTRESGVPSRFSGSGSGTDFTLTISSLQPEDVATYYCHQYLYSWTFGQGTKLEIKRLEPKSSDKTHTCPPCPAPEAAGAPSVFLFPPKPKDTLMISRTPEVTCVVVDVSHEDPEVKFNWYVDGVEVHNAKTKPREEQYNSTYRVVSVLTVLHQDWLNGKAYACAVSNKALPAPIEKTISKAKGQPREPQVYTLPPSRDELTKNQVSLTCLVKGFYPSDIAVEWESNGQPENNYKTTPPVLDSDGSFFLYSKLTVDKSRWQQGNVFSCSVMHEALHNHYTQKSLSLSPG
B7: FUN1-31 humanized FUN1 SMIP (Fc fusion)
chain: QVQLVESGGGLVKPGGSLRLSCAASGFTFSDYNMNWIRQAPGKGLEWVSNIDPYYGGTSYNQKFKGRFTISRDNAKNSLYLQMNSLRAEDTAVYYCARWDYRYDDGRAYYVMDFWGQGTTVTVSSGGGGSGGGGSGGGGSGGGGSDIVMTQSPDSLAVSLGERATINCKSSQSVLYSSNQKNYLAWYQQKPGQPPKLLIYWASTRESGVPDRFSGSGSGTDFTLTISSLQAEDVAVYYCHQYLYSWTFGQGTKLEIKRLEPKSSDKTHTCPPCPAPEAAGAPSVFLFPPKPKDTLMISRTPEVTCVVVDVSHEDPEVKFNWYVDGVEVHNAKTKPREEQYNSTYRVVSVLTVLHQDWLNGKAYACAVSNKALPAPIEKTISKAKGQPREPQVYTLPPSRDELTKNQVSLTCLVKGFYPSDIAVEWESNGQPENNYKTTPPVLDSDGSFFLYSKLTVDKSRWQQGNVFSCSVMHEALHNHYTQKSLSLSPG
B8: FUN1-32 humanized FUN1 SMIP (Fc fusion)
chain: QVQLVESGGGLVKPGGSLRLSCAASGFTFSDYNMNWIRQAPGKGLEWVSNIDPYYGGTSYNQKFKGRFTISRDNAKNSLYLQMNSLRAEDTAVYYCARWDYRYDDGRAYYVMDFWGQGTTVTVSSGGGGSGGGGSGGGGSGGGGSDIQMTQSPSSLSASVGDRVTITCKSSQSVLYSSNQKNYLAWYQQKPGKVPKLLIYWASTRESGVPSRFSGSGSGTDFTLTISSLQPEDVATYYCHQYLYSWTFGQGTKLEIKRLEPKSSDKTHTCPPCPAPEAAGAPSVFLFPPKPKDTLMISRTPEVTCVVVDVSHEDPEVKFNWYVDGVEVHNAKTKPREEQYNSTYRVVSVLTVLHQDWLNGKAYACAVSNKALPAPIEKTISKAKGQPREPQVYTLPPSRDELTKNQVSLTCLVKGFYPSDIAVEWESNGQPENNYKTTPPVLDSDGSFFLYSKLTVDKSRWQQGNVFSCSVMHEALHNHYTQKSLSLSPG
notes: SMIP: scFv-hinge-Fc single chain

Columns and labels:
[1] = target: T1, Murine CD86-mIgG (R&D Systems, Inc) (murine, UniProt P42082 24-244, limits assumed); experiment: SPR (BIAcore T100), murine CD86-mIgG immobilized on CM5; steady-state equilibrium fit
T1 construct: also called muCD86
T1 sequence (looked up): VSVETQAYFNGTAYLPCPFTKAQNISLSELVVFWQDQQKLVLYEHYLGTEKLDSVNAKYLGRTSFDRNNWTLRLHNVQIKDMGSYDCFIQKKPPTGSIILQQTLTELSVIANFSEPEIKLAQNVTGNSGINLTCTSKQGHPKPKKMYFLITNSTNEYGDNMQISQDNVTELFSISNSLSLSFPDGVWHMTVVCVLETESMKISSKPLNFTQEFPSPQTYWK
Description: (§1) SPR measurements were performed on a BIAcore™ T100 SPR (Pharmacia Biotech AB, Uppsala) using HBS-EP+ (GE Healthcare) as a running buffer. Murine CD86-mIgG (25 μg/mL in 10 mM sodium acetate, pH 4.0, R&D Systems, Inc) was directly immobilized onto a CM5 chip using standard amine coupling chemistry (Biacore Amine Coupling Kit, GE Healthcare), with final immobilization levels of 150, 493, and 746 Ru. CTLA4-containing constructs were injected for 150 seconds, at a flow rate of 10 μl/min, in a series of concentrations from 4 nM to 8 μM. Dissociation was monitored for 600 seconds (CTLA4 constructs) or 1200 seconds (GL1 constructs), and the surface was regenerated by injecting 10 mM glycine, pH 1.7, for 60 seconds. […] Data were analyzed using BiaEvaluation for the T100 software (version 2.0.1, GE Healthcare).

[2] = target: T1, Murine CD86-mIgG (R&D Systems, Inc); experiment: SPR (BIAcore T100), murine CD86-mIgG immobilized on CM5; bivalent analyte model, first site
Description: as §1

[3] = target: T1, Murine CD86-mIgG (R&D Systems, Inc); experiment: SPR (BIAcore T100), murine CD86-mIgG immobilized on CM5; bivalent analyte model, second site
Description: as §1

[4] = target: T2, CD86 on cells (WIL2-S human B-lymphoblastoid cells; HuCD86-2A2 CHO cells expressing CD86) (human, UniProt P42081 24-329); experiment: flow cytometry, supernatants of transfected HEK293 cells on HuCD86-2A2 cells
T2 construct: whole, on cells; also called cell surface CD86
T2 sequence (looked up): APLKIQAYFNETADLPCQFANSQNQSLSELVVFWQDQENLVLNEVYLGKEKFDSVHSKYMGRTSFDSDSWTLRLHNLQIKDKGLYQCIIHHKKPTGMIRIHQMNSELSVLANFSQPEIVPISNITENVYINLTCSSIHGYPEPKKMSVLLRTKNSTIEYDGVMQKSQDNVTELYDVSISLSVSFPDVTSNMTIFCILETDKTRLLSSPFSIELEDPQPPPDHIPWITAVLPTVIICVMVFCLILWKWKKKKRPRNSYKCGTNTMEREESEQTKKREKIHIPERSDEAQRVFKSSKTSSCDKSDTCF
Description: Briefly, WIL2-S or HuCD86-2A2 cells were incubated with test molecules containing a CD86 antagonist at concentrations ranging from saturation to background levels. […] After the incubation, cells were washed and a fluorophore (R-phycoerythrin) tagged F(Ab′)₂ antibody specific for the Fc portion of the xceptor molecule, IL10R-Ig fusion protein, or anti-IL10 antibody. The tagged cells were then passed through a flow cytometer and data was analyzed by plotting median fluorescence intensity of each sample.
In another experiment, different versions of humanized FUN1 SMIPs were tested for CD86 binding. Supernatants of HEK293 cells transiently transfected with the six different versions of humanized FUN1 SMIPs were examined for CD86 binding using HuCD86-2A2 cells.

Binder | Kd [1] [nM] | koff [2] [s⁻¹] | kon [2] [M⁻¹ s⁻¹] | Second Site ka [3] [s⁻¹] | Second Site kd [3] [s⁻¹] | binding result [4]
B1 | 37.7 | 0.000106 | 78900 | 0.00879 | 0.00635 | –
B2 | 26.2 | 6.2e-05 | 118000 | 0.00964 | 0.0185 | –
B3 | 78.3 | 0.000125 | 177000 | 0.0431 | 0.0977 | –
B4 | 86.4 | 0.00019 | 219000 | 0.00943 | 0.0182 | –
B5 | 95.1 | 4.4e-05 | 67300 | 0.0271 | 0.088 | –
B6 | – | – | – | – | – | no binding
B7 | – | – | – | – | – | no binding
B8 | – | – | – | – | – | no binding
